Data from FireProtDB (doi:10.1016/j.jmb.2009.04.075).
Values joined by “and” are separate entries in the source; they are usually repeats but may differ in a detail not shown here. Equal values may be shown once.

Conditions: Saccharomyces cerevisiae (strain ATCC 204508 / S288c); pH 7; 25 °C; GdnHCl; CD; Tris 20 mM; NaCl 40 mM; reversible: Yes

Chain of Cytochrome c isoform 1 wild type, P00044 (P00044 whole entry, canonical isoform): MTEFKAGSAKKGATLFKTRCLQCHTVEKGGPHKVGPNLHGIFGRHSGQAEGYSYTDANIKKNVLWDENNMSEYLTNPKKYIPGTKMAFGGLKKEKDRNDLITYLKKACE

Which “denaturant midpoint (higher = more stable)” value does the source give for “Cytochrome c isoform 1 wild type, P00044” here?
Its value is 0.49 M and 0.45 M.
